# Data: IntAct's records for PubMed 10373560
# B1: Membrane-associated tyrosine- and threonine-specific cdc2-inhibitory kinase (Homo sapiens), Q99640 (parent)
# chain: MLERPPALAMPMPTEGTPPPLSGTPIPVPAYFRHAEPGFSLKRPRGLSRSLPPPPPAKGSIPISRLFPPRTPGWHQLQPRRVSFRGEASETLQSPGYDPSRPESFFQQSFQRLSRLGHGSYGEVFKVRSKEDGRLYAVKRSMSPFRGPKDRARKLAEVGSHEKVGQHPCCVRLEQAWEEGGILYLQTELCGPSLQQHCEAWGASLPEAQVWGYLRDTLLALAHLHSQGLVHLDVKPANIFLGPRGRCKLGDFGLLVELGTAGAGEVQEGDPRYMAPELLQGSYGTAADVFSLGLTILEVACNMELPHGGEGWQQLRQGYLPPEFTAGLSSELRSVLVMMLEPDPKLRATAEALLALPVLRQPRAWGVLWCMAAEALSRGWALWQALLALLCWLWHGLAHPASWLQPLGPPATPPGSPPCSLLLDSSLSSNWDDDSLGPSLSPEAVLARTVGSTSTPRSRCTPRDALDLSDINSEPPRGSFPSFEPRNLLSLFEDTLDPT
# Variants of: B1
# Details: with ccnb1_human CCNB1, P14635
# ccnb1_human CCNB1, P14635, sequence (P14635 whole entry): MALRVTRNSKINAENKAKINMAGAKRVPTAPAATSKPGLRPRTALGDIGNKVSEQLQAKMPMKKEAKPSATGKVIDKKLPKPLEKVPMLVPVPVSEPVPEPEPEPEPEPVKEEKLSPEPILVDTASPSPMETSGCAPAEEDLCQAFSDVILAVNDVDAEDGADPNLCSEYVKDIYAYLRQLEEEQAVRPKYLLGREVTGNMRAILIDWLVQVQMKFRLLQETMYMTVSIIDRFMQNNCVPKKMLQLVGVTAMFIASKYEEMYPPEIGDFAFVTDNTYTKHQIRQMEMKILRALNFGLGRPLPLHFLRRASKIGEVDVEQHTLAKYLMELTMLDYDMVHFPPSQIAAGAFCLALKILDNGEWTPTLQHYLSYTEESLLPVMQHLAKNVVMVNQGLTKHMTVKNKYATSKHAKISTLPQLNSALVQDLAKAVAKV
row,effect of a mutation on the interaction,Variant
1,decreasing interaction,R486A;N487A;L488A
